Laboratory results as given in the supplement of paper PMC12042874.
± gives the uncertainty stated by the source.

Experiment: amyloid nucleation score (Sup35N fusion, yeast selection) (log enrichment); library NNK1; higher = more nucleation; inactive = no reads after selection
Procedure, shortened: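 Libraries of peptides of 20 random codons fused to Sup35N were expressed in psi-negative yeast and induced 24 hours with 100 μM copper sulfate. Selection was 7 days at 30°C on medium lacking adenine and uracil, and plasmid inserts were Illumina-sequenced before and after selection. Nucleation score is the DiMSum log enrichment of output over input reads, centred on the mode score of non-aggregating sequences, and sequences with under 100 input reads were left out.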

Substance	amyloid nucleation score
CFYAA	-0.557 ± 0.56
SSSSML	-0.202 ± 0.47
LGFAFQNVTKALNLTFAYGS	0.81 ± 0.15
GERGQFTILISYMALRDRLM	2.45 ± 0.13
SSSRNLVSSRCLQVYLPMHA	0.986 ± 0.71
QILCLTVVSVFQGYSVMIPF	0.022 ± 0.32
VHSGNMMSNFGWAERLHKKA	-0.39 ± 1.2
LRVYPGTYLTNRETRSRSCI	0.828 ± 0.43
FCSLLHPFTWYLSEHSMGLG	0.541 ± 0.57
FECCAVLLYMGRVNACRVCC	-0.281 ± 0.44
LNLWPIDANVGWLWKRWRWR	-0.538 ± 2.1
QIPPRDL	0.274 ± 0.51
LQFLSGYNC	0.293 ± 0.49
AVRWLHIGWSKETGRNCDCR	0.671 ± 0.64
NAMVDGQGILIHSL	inactive
YRRNIIL	-0.368 ± 0.4
MICAQSVS	0.991 ± 0.24
MSSIKQY	-1.07 ± 2.4
FGIPAHNLLCYGCFLNWILV	inactive
LCRFSAEDHCYADCTVDHCC	-0.244 ± 0.66
MWWHVSSMQDRDSGDFNGLL	0.323 ± 0.22
SRVSYPGFYYGCPVFQYYSA	7.589 ± 0.053
SADPSNYRERIFLKLMKLHG	-0.514 ± 0.37
IYRDGIGTDIWFRGSICKCL	0.704 ± 0.61
DSTLTVKFLMMVRYMVCSVG	1.71 ± 0.25

Substance	amyloid nucleation score
KSWQFMSRGVSGWFWRLVPQ	0.743 ± 0.48
FFRIACL	-0.704 ± 0.45
SNFFVRFNTVTNFSMWDEYY	inactive
CLFFLPQGLKRYE	0.015 ± 0.53
RFTSDAQ	-0.524 ± 0.24
EYIMYYWIRIVYFVINGYLV	0.534 ± 0.36
EIRLNYMGFGPKCT	0.735 ± 0.27
NYRQHHKTSRVLRLDVGTEP	-0.252 ± 0.3
KLCWASTRMMWRFYFLDCLD	0.146 ± 0.39
MIDRRKSLVEGRGRNCVSGC	-0.646 ± 1.1
WRDTDCGLIN	inactive
LGYEGWYTRVIYGKVALWME	-0.215 ± 0.59
NFLPVLVCQPLSWLLIPLLY	0.309 ± 0.31
GRMSRMILD	-0.407 ± 0.69
HIRCHVRTGEAARHRQVAQY	0.136 ± 0.39
YDMIWSSMLGFIERQAYMLP	-0.502 ± 0.32
YCRFWVDFFVFESILDSPPN	0.093 ± 0.32
LGNIKFITYVERCTQEVVSY	-1.49 ± 1.8
SRNVVLPL	0.195 ± 0.43
AAGRMIRIMVTGVRLDKDKD	-0.257 ± 1.7
ESMLSSIRGLHNG	-0.851 ± 1.7
MFRCFSDTKSNRTFCFMHTC	-0.143 ± 0.56
CMLVYCEVASVGVSFKLWWR	1.73 ± 0.39
LSGVLGSVAFAYIRPRTGFG	-0.143 ± 1.2
CELPTRLF	-0.143 ± 0.33

Substance	amyloid nucleation score
QELICMGSEYVFPNWTSFRA	-0.412 ± 0.49
NHCSLFCAFSW	1.86 ± 0.67
FCMTMRSARCGHLSMYCCFQ	1.8 ± 0.4
IKPDWKMKNRDGTTTKLI	2.6 ± 0.093
LSRIDRFTVGENMVTATFLI	inactive
TSPDYPRRYVQMSRR	0.507 ± 0.52
ANGMEGL	1.13 ± 0.81
FNLNNGIR	inactive
LRKALRLDVHLGTNLYLNSF	0.542 ± 0.75
VRISVCNYWFMVVGMAF	0.251 ± 0.31
RLEYCSRRWLANTLSGGRSL	0.002 ± 0.96
NTKELVYKMGCGVRYHGKWG	1.28 ± 0.71
QRGMTIL	0.109 ± 0.31
RFLSVISDKTIAYWPSDVVS	0.377 ± 0.99
GLWQWAIHLRWIGIEHTQTR	0.295 ± 0.97
DMVVRDQHL	4.7 ± 0.066
SKFVT	1.2 ± 0.9
NGLSMSLSCRYTLWVIFFSF	-0.157 ± 1.2
IIGQLRI	0.454 ± 0.66
GYMSRVTLVVCTMMIRRNGD	0.906 ± 0.24
EMYCVYSFRSYFVYGLSLGS	-0.269 ± 0.36
FLLREQQGLTEVMKEV	0.481 ± 0.52
RCCYCLGLFVWATCVGGVRT	3.1 ± 0.24
LMAPLCICKNFRPELWFNRI	-0.115 ± 0.58
NGMSSFRCLYMWARTFPVSN	-0.424 ± 0.99

Substance	amyloid nucleation score
SVWVVCFVSRNVLVMFNSNF	inactive
WVSNCIFDAGLWRSYYRMGI	0.74 ± 0.34
VSTVLARSVWLWDTPFLRSE	-0.079 ± 0.34
NGVVLLFFSDSADMRLCAAM	0.319 ± 0.58
GRLPLTKWASMTRVLMYLLR	0.652 ± 0.47
NMDRVSFLR	-0.062 ± 0.6
MSPWASNHLW	inactive
LSNALS	0.8 ± 0.81
IYRFGFRACVDPGLRIV	inactive
TYRLH	-0.57 ± 0.55
FLNMQYRGLQ	3.42 ± 0.11
SQFISK	1.14 ± 0.52
CMDKCVCERHPYL	-0.345 ± 1.7
SSRFVWIASKINILYNFQTY	-0.403 ± 0.7
RLTVTADWHHHWRLVRQFKA	-0.044 ± 0.71
ACLATNCVSFANFASCCWGW	7.154 ± 0.059
VDYMERGYYAYIMVGICI	inactive
DNNYSCILAASYLYGLKNYL	-0.12 ± 0.51
MNMICSFL	-1.39 ± 1.4
AESWCAGSKIIHSIGWSKDR	0.589 ± 0.54
NFRHFILVYLMPFT	inactive
SARHSMAEAMEYYIFGWVPR	-1.16 ± 1.2
CSAQTGVGSFPFGNIPVVSV	0.789 ± 0.56
TSHSGIEFRLEFARSSPPSQ	-0.161 ± 0.66
QDFILDNCFPEGNLVCFKGV	0.361 ± 0.58

Substance	amyloid nucleation score
GTFAWGHRFYVIAAYFILYD	inactive
MLISSILTYIKVSGYCPGCT	0.347 ± 0.52
ISKSFWTRGECCRK	0.368 ± 0.39
YPGQARNRVLCCGWKFFIDQ	3.39 ± 0.15
MHRESR	1.2 ± 0.36
YGYRSRSLSFCLD	inactive
MRWHINATLNGRLGAGLILV	-0.526 ± 0.7
LYIRSIACGSSLLFLAVLNC	-0.856 ± 1.1
TFQGARYYYWPAVF	1.33 ± 0.63
YPSDLLDIWDDWICWCWELN	0.225 ± 0.53
PLNSRTCGPFARSSIWDWDT	0.937 ± 0.9
TNFYAVFLLLGGSGF	7.171 ± 0.051
FATMGSKKCSGARHSKRGSC	-0.26 ± 0.34
AGSLWFIWGLLSALN	-0.893 ± 0.92
SDMYIL	0.807 ± 0.43
MILHLDVSISIVLD	1.58 ± 0.15
PTVLTVLFNRPFRSCN	-0.178 ± 0.61
YPGEGEPKKYLPYNRLCWRS	1.08 ± 0.69
MYLITGKIARNAKTDSPGSN	-0.52 ± 0.68
LGALIYNSAFN	inactive
MGAIFCNGSK	0.371 ± 0.67
FRLMVPGVCRRLANGLRMIW	-0.3 ± 0.35
LIHVCQYCVRPVNGGSVNLR	0.264 ± 0.44
MEFISFTWLKYSYMYSDVFS	inactive
CLLFNGNKLVCSHILMRKNG	0.443 ± 0.23

Substance	amyloid nucleation score
TMQFFHERGYLLKSRYAGAW	-0.273 ± 0.98
ISHNQIWVRIGISRLFQHKV	2 ± 0.35
QRIFTRLIYIRYAIPKFRTK	-0.399 ± 0.32
GRGTRLYVRRQW	0.39 ± 0.28
VITFITSL	3.85 ± 0.064
SNHDNFYPVVLCMESKYNIE	0.302 ± 0.34
YPGRWSSYRLEGSTKNARNG	inactive
LSLNSHYCDDCVWLFR	1.02 ± 0.45
NFSYMLLLAPSKVTRAGCFV	-0.134 ± 1.3
CLKFSIFDGE	0.127 ± 0.6
EFWGVSLLVFVFCELIGIFC	-0.479 ± 0.38
VRRCFFVYSVR	-0.979 ± 1.2
YVPGSRLRPYLIQSFNNSLY	2.81 ± 0.19
CLNSHFGKNISNLFVCDLVC	0.484 ± 0.61
IMRYLGVKKVE	-0.245 ± 0.4
MVVFMYVST	0.289 ± 0.39
RCVSFPIWRFIPEVLVIWLG	-1.04 ± 1.3
CAVLLVIGTAANEMCARRLI	-0.197 ± 1.9
RLFALLWNDFDRSGVAMPVL	-0.379 ± 0.36
MGLQTFVVTRMV	-0.758 ± 0.42
LRPYFLGCRRSKKPKALLAG	0.252 ± 0.8
FTMYKCMCSMGRRNSAGGAS	-0.325 ± 0.98
RLCRTVEWCGCYSIPNLQCA	0.118 ± 0.46
SVKSIRCLCSVVEYKETGHR	0.438 ± 0.34
SMRCKSYGCC	0.3 ± 0.59

Substance	amyloid nucleation score
IYWSP	0.569 ± 0.26
VSLCAQRYVIMMSIVRTKSL	0.105 ± 0.22
KCSVCF	2.24 ± 0.35
NFGLPMYYFANDLESTDVVS	-0.115 ± 1.4
GGYGSIECFRSLVREKCCSV	0.086 ± 0.62
QLFMHPRGIMKGLF	0.581 ± 0.52
NNACMSSYVVGYRSIVMVK	0.558 ± 1.1
TYDQTRMTVHRSSSIERART	0.173 ± 1.4
PTMLKNRGVLSQPHIIFSYR	-0.333 ± 0.34
TIFVYSKTNL	2.64 ± 0.18
SCPGK	0.001 ± 0.44
FFGMLDPSTER	-0.73 ± 0.36
RVGQSCCDFT	-0.047 ± 1.1
DAYTGCIDNSVANAG	0.481 ± 0.6
QHHSRRMNLGC	-0.407 ± 0.32
ASSGPAIYFNGRQRTFYYSD	1.05 ± 0.29
VWFNPYLNDRSREGGRVVWM	0.099 ± 0.27
CLNVCSLFRSTYRFKRVREC	0.434 ± 0.37
THCVSLLGIYFFSSWVMIVR	-0.266 ± 0.4
VGYGASMYYYFFWHKFFLVF	0.037 ± 1
CQLNTASVSNNGGRVLGMYR	0.529 ± 0.79
GEYRDGFSLRVMGLHGSLNH	1.07 ± 0.58
FCRRGSWVEPLLTCRYAMEA	-0.155 ± 0.64
